# Literature values as cited in publication PMC7295915.
# How the values were obtained:
# [1] = biological target: CD48 (Homo sapiens) (UniProt P09326)
# [2] = biological target: CD80 (Homo sapiens) (UniProt P33681)
# [3] = biological target: CD40L (Homo sapiens) (UniProt P29965)
# [4] = biological target: ICAM-1 (Homo sapiens) (UniProt P05362)
# Chain of ICAM-1 (Homo sapiens) (P05362 28-480): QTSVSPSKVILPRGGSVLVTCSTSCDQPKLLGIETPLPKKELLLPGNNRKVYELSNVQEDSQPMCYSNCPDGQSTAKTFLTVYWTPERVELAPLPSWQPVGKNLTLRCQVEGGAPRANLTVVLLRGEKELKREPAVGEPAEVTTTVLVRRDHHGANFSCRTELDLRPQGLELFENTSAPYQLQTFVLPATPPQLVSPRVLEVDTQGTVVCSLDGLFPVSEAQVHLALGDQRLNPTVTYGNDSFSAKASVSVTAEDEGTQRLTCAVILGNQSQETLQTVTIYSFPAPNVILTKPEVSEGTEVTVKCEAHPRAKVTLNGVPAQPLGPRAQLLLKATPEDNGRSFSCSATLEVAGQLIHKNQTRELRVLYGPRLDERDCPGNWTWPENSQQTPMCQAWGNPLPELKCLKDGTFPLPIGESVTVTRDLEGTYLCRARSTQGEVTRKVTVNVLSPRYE
# Chain of CD48 (Homo sapiens) (P09326 27-220): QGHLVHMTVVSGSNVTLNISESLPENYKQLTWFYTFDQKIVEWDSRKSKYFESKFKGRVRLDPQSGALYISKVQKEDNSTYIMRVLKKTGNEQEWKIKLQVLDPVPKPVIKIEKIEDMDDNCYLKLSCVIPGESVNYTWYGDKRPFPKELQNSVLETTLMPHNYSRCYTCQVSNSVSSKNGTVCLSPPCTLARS
# Chain of CD40L (Homo sapiens) (P29965 113-261): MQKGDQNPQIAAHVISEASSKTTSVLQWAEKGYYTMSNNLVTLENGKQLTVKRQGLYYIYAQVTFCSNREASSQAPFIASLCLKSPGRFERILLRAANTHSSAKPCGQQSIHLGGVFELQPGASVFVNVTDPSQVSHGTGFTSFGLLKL
# Chain of CD2 (P06729 25-209): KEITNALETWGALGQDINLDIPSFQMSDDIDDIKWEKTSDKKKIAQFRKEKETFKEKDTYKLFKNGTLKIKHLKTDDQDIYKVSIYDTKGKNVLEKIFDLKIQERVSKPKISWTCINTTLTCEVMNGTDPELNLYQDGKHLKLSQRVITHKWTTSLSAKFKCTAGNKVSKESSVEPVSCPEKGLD
# Chain of CD80 (Homo sapiens) (P33681 35-242): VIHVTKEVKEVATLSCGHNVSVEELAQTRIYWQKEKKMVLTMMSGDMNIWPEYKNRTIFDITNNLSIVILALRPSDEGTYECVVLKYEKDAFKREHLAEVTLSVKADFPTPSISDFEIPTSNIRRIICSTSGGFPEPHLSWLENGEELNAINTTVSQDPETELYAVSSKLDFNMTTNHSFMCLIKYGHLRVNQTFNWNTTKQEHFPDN
# Chain of LFA-1 (P20701 26-1090): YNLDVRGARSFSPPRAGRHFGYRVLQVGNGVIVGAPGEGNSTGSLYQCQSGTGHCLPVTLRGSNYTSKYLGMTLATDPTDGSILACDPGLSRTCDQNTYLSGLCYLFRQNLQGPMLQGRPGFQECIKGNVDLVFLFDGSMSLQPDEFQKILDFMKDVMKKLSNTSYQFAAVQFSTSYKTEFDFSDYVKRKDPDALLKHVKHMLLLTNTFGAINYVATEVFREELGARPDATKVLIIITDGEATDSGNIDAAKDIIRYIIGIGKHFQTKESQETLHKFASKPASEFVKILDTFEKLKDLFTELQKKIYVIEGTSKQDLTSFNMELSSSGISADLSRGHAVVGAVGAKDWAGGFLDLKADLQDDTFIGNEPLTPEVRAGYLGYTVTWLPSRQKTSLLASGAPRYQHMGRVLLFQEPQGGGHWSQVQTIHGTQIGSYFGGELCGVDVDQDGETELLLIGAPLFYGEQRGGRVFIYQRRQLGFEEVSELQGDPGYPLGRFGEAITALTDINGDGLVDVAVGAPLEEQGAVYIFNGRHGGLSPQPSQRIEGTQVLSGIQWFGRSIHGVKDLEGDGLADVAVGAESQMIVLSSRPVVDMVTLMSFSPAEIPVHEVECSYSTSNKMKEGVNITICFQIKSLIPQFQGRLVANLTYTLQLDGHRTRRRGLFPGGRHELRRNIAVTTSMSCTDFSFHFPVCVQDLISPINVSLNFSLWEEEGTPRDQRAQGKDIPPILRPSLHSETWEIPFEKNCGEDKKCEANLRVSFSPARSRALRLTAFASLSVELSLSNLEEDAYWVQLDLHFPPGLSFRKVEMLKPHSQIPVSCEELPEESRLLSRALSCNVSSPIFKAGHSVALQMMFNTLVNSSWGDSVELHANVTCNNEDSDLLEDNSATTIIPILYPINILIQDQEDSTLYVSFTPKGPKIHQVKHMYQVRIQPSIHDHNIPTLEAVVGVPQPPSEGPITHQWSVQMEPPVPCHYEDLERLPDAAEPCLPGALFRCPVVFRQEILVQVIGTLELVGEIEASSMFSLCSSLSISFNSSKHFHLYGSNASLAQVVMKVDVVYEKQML
# Chain of LFA-1 (P05107 23-700, further chain): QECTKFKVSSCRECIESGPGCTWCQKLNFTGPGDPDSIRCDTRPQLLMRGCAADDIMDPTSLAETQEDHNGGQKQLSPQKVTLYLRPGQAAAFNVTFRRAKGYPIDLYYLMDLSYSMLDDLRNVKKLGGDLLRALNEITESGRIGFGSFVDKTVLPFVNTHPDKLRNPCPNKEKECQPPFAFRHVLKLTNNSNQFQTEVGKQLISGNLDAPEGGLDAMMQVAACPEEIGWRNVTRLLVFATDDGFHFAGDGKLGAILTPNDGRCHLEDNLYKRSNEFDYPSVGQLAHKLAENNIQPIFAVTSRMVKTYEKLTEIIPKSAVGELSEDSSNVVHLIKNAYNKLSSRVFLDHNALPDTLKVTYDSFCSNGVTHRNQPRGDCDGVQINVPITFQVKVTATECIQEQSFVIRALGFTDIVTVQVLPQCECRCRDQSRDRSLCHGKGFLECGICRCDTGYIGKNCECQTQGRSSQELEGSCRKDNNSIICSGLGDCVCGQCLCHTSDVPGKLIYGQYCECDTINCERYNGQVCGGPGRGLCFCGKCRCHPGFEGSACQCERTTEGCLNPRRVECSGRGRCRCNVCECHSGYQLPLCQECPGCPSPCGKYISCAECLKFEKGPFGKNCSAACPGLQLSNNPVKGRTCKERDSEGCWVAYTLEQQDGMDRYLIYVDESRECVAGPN
# Chain of CD40 (P25942 21-277): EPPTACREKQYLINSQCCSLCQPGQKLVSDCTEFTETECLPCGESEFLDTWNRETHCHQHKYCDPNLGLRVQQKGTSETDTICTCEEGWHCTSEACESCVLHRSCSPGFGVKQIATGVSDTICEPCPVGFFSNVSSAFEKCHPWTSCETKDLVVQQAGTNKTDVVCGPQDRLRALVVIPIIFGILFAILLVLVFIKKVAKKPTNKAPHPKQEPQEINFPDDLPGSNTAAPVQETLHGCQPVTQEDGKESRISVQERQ
substance,measurement,setting,value
CD2 (from UniProt P06729),Kd,[1],100000 nM
CD28 (from UniProt P10747),Kd,[2],4000 nM
CD40 (from UniProt P25942),Kd,[3],200 nM
LFA-1 (from UniProt P20701),Kd,[4],500 nM
